# PMC12661985, “USP25 deubiquitinates cytosolic METTL3 to impede glioma proliferation via an m6A-independent pathway” (iScience, 2025)
# T1: His-USP25 (human, UniProt Q9UHP3 1-1055)
# T1 construct: USP25, human; also called pGEX-4T-1-His-USP25; source: E. coli BL21, purified
# T1 sequence (looked up): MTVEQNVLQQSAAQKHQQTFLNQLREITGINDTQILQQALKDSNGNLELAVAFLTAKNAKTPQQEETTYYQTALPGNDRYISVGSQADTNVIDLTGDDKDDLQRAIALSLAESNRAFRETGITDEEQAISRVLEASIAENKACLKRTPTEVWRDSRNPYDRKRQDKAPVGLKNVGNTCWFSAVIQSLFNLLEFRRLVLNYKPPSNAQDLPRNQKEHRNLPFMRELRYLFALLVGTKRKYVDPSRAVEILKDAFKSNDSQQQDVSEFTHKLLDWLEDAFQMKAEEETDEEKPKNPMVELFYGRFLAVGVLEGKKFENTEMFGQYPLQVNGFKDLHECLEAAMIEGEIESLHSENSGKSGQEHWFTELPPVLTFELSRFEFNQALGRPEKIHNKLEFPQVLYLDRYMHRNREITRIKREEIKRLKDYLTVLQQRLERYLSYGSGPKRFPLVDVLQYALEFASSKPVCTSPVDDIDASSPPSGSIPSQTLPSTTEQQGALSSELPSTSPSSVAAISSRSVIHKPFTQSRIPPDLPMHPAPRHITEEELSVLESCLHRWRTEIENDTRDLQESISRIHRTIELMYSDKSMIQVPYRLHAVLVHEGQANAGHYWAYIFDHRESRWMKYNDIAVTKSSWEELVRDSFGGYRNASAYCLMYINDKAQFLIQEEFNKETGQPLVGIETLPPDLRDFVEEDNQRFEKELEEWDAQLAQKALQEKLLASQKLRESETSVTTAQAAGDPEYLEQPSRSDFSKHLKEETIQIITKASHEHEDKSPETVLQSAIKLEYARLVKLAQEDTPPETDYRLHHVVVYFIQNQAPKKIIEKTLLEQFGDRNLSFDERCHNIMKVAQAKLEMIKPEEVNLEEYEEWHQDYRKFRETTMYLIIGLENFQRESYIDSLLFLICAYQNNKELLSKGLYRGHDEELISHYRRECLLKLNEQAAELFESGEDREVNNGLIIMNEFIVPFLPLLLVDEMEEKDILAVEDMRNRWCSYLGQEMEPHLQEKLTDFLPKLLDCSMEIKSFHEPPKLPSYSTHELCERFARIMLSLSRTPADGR
# Tests used:
# [1] = molecular target: T2, His-METTL3 (human, UniProt Q86U44 1-580); assay: pull-down; about 10 ug GST fusion protein on glutathione Sepharose incubated with recombinant His-tagged protein, 2 h at 4 C, six washes with NETN buffer; blot with His antibodies; conditions: both partners purified
# T2 construct: METTL3, human; also called pGEX-4T-1-His-METTL3; source: E. coli BL21, purified
# T2 sequence (Q86U44 whole entry, the tested form may be a part): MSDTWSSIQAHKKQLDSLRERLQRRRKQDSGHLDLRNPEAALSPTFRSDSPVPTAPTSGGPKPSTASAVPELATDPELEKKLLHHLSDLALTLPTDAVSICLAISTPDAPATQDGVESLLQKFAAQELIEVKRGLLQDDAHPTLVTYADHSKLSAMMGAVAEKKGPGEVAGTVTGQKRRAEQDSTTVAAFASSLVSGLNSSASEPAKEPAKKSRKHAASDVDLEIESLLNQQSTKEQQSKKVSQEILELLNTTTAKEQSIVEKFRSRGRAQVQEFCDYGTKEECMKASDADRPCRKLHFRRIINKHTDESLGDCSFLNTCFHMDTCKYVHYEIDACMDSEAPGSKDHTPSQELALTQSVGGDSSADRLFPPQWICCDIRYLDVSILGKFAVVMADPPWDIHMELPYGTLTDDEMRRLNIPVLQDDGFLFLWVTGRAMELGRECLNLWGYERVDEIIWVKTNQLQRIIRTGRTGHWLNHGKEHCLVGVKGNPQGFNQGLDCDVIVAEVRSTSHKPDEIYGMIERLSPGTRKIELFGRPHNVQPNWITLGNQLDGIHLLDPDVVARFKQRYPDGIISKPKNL
# [2] = molecular target: T1, His-USP25; assay: as above; conditions: both partners purified
Binder,binding result [1],binding result [2]
"GST-USP25-166-718 (domain or fragment, human, UniProt Q9UHP3 166-718, looked up, USP25, human, USP domain, residues 166-718; also called USP domain (aa 166-718) of USP25; pGEX-4T-1-GST-USP25-166-718; source: E. coli BL21, purified (glutathione Sepharose)) KAPVGLKNVGNTCWFSAVIQSLFNLLEFRRLVLNYKPPSNAQDLPRNQKEHRNLPFMRELRYLFALLVGTKRKYVDPSRAVEILKDAFKSNDSQQQDVSEFTHKLLDWLEDAFQMKAEEETDEEKPKNPMVELFYGRFLAVGVLEGKKFENTEMFGQYPLQVNGFKDLHECLEAAMIEGEIESLHSENSGKSGQEHWFTELPPVLTFELSRFEFNQALGRPEKIHNKLEFPQVLYLDRYMHRNREITRIKREEIKRLKDYLTVLQQRLERYLSYGSGPKRFPLVDVLQYALEFASSKPVCTSPVDDIDASSPPSGSIPSQTLPSTTEQQGALSSELPSTSPSSVAAISSRSVIHKPFTQSRIPPDLPMHPAPRHITEEELSVLESCLHRWRTEIENDTRDLQESISRIHRTIELMYSDKSMIQVPYRLHAVLVHEGQANAGHYWAYIFDHRESRWMKYNDIAVTKSSWEELVRDSFGGYRNASAYCLMYINDKAQFLIQEEFNKETGQPLVGIETLPPDLRDFVEEDNQRFEKELEEWDAQLAQKALQEKLLA",binds,
"GST-METTL3-369-424 (domain or fragment, human, UniProt Q86U44 369-424, looked up, METTL3, human, Gate-loop 1; source: E. coli BL21, purified (glutathione Sepharose)) FPPQWICCDIRYLDVSILGKFAVVMADPPWDIHMELPYGTLTDDEMRRLNIPVLQD",,binds
"GST-METTL3-425-500 (domain or fragment, human, UniProt Q86U44 425-500, looked up, METTL3, human, Interface loop, residues 425-500; also called Interface loop (aa 425-500) of METTL3; pGEX-4T-1-GST-METTL3-425-500; source: E. coli BL21, purified (glutathione Sepharose)) DGFLFLWVTGRAMELGRECLNLWGYERVDEIIWVKTNQLQRIIRTGRTGHWLNHGKEHCLVGVKGNPQGFNQGLDC",,binds
